Measured values: patent publication US20250289897A1 (Eli Lilly, published 2025)
Blank lines part the entries; values can stand above or below the binder they belong to.

Columns and labels:
[1] = molecular target: T1, Human C1q (MS Biomedical) (human, UniProt P02745 23-245; P02746 28-253; P02747 29-245); experiment: C1q ELISA, plate coated with the antibody at 0.19-10 ug/mL, human C1q added at 10 ug/mL, sheep anti-human C1q-HRP detection, OD450
T1 construct: the three subunits are from general knowledge; also called complement component C1q; Clq
T1 sequence (P02745 23-245 limits assumed, chain 1 of 3): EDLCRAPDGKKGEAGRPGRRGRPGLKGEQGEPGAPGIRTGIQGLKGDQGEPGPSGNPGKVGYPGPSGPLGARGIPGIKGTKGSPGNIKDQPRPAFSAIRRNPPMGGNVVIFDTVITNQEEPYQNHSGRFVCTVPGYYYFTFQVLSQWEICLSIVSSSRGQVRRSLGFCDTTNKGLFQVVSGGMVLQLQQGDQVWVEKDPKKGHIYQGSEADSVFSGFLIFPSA
T1 sequence (P02746 28-253 limits assumed, chain 2 of 3): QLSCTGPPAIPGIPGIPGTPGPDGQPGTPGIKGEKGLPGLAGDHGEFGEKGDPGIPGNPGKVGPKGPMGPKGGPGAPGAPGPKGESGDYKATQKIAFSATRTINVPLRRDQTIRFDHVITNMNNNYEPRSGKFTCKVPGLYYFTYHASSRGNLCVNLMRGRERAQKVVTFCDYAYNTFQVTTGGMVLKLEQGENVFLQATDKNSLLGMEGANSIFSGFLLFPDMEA
T1 sequence (P02747 29-245 limits assumed, chain 3 of 3): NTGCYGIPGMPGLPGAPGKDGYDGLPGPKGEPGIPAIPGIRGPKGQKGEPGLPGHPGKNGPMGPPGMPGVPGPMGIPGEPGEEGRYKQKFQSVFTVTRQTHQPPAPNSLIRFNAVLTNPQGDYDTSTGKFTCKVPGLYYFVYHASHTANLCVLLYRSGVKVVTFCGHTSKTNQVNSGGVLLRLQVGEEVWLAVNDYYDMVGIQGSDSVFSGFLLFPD
Procedure: Testing was performed in duplicate wells. The plate was sealed and incubated overnight at 4° C. The coating reagent was removed from each well and 200 μL/well of casein blocking reagent (Thermo) was added. The plate was sealed and incubated for 2 hours at room temperature (RT). Each well was washed 3 times with wash buffer (1xTBE with 0.05% Tween 20). One hundred microliters per well of Human Clq (MS Biomedical) at 10 μg/mL diluted in casein blocking reagent was added and incubated for 3 hours at RT. The plate was then washed three times with wash buffer before 100 L/well of a 1:800 dilution of Sheep anti-human C1q-HRP (Abcam #ab46191) in casein blocker was added and incubated for 1 hour at RT. The plate was washed 6 times with wash buffer, and 100 μL/well of TMB Substrate (Pierce) was added to each well and incubated for 7 minutes. One hundred microliters of 1 N HCl was added to each well to stop the reaction.

[2] = molecular target: T2, neonatal Fc receptor (FcRn) on FcRn Affinity Column Gen2 (Roche, Cat #09430857001) (UniProt P55899 24-297; P61769 21-119, limits assumed); experiment: FcRn-HPLC (Roche FcRn Affinity Column Gen2), peak width at 50% peak height
Procedure: (§1) Stock antibody solutions were diluted to 1 mg/mL into 20 mM MES, 140 mM NaCl, pH5.5. […] 20 μμL antibody injections were made followed by 10 minute column wash with 20 mM MES, 140 mM NaCl, pH5.5. Antibodies were then eluted by pH gradient elution into 20 mM Tris, 140 mM NaCl, pH8.8 over 90 minutes. Chromatograms were blank-subtracted to remove baseline drift.

[3] = molecular target: T3, human LEPR, full length, on HEK293-STAT3Luc-hLepR1 cells (Homo sapiens, UniProt P48357 22-1165); experiment: flow cytometry on live HEK293-STAT3Luc-hLepR1 cells, AF647 anti-human IgG; average of 4 runs, SD 1.7
T3 construct: also called human LEPR on live cell surface
T3 sequence: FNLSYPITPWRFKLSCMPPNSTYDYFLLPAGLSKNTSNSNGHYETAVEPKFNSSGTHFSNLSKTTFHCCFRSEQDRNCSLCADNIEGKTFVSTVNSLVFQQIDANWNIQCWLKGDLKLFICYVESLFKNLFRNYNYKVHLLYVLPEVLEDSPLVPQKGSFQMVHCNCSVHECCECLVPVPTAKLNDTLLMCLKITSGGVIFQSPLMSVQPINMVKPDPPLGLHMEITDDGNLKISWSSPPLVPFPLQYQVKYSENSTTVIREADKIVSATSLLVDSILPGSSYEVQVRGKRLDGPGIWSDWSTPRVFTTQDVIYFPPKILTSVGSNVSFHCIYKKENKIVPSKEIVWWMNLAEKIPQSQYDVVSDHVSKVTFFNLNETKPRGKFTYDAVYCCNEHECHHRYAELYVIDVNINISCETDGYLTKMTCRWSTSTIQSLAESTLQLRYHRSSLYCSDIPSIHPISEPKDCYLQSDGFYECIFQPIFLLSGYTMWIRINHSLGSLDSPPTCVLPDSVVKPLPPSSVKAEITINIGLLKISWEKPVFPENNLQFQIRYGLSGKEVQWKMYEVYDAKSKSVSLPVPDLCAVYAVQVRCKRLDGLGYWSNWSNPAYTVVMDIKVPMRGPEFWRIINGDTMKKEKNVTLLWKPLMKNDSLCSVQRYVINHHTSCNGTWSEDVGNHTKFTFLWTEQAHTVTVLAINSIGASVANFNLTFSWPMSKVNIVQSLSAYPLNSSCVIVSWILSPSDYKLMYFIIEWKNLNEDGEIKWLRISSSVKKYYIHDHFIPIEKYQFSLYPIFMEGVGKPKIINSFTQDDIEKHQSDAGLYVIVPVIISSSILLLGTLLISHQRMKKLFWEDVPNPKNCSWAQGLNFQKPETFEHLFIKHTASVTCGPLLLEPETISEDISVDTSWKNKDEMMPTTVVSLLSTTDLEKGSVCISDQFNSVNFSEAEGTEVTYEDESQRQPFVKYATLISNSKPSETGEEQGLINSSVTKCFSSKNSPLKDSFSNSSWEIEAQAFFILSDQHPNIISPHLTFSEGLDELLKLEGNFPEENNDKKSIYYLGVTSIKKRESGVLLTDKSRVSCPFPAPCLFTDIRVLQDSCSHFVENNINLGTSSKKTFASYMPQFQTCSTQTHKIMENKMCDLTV
Procedure: (§2) Cells were incubated in blocking buffer for 10 mins at room temperature. After one rinse with PBS, cells were transferred to U-bottom 96-well plate at 200 μL and 0.2˜0.26^e6 cells/well. […] Cells were then incubated with 30 μL/well of antibodies diluted in flow buffer at 1000 nM as high dose followed by 9-point dose response including 5-fold dilutions not including 0 (totaling 9 concentrations for each Antibody) for 30 minutes at 4° C. in dark.

[4] = molecular target: T2, neonatal Fc receptor (FcRn) on FcRn …; experiment: FcRn-HPLC (Roche FcRn Affinity Column Gen2), pH gradient 5.5 to 8.8 over 90 minutes
Procedure: as §1

CYNO LEPR-ECD-His [5] = molecular target: T4, CYNO LEPR-ECD-His (cynomolgus monkey, UniProt Q9MYL0 22-837 (rhesus entry)); experiment: SPR (Biacore T200), antibody captured on Protein A/G chip, His-tagged LEPR-ECD as analyte, 1:1 fit; mean n=3, SD 2.0E-9
T4 construct: also called cynomolgus monkey LEPR
T4 sequence: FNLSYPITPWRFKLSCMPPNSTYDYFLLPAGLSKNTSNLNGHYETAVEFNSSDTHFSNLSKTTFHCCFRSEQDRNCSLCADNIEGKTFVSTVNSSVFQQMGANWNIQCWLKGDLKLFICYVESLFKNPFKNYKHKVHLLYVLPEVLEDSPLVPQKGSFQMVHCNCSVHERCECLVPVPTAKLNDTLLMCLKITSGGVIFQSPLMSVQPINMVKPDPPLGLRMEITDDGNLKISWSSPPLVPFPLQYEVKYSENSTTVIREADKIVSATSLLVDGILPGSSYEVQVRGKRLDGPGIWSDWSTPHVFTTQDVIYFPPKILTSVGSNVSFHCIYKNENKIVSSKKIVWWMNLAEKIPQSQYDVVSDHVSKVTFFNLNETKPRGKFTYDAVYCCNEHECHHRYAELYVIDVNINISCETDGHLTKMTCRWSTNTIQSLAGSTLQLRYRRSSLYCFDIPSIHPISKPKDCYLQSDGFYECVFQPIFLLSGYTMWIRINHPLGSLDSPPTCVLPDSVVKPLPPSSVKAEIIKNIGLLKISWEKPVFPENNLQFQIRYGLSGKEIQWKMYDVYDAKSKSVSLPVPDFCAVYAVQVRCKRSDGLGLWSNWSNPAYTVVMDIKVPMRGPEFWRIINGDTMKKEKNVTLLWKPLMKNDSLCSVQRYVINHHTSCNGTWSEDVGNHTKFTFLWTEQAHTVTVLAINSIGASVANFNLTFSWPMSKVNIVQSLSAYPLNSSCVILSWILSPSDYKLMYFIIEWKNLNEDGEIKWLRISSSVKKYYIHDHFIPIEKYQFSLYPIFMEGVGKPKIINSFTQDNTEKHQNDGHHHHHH
Procedure: (§3) His-tagged ECDs were expressed and purified for each species and used for affinity analysis. A Protein A/G chip (Xantec, Cat #PAGHC200M) was utilized in this experiment with HBS-EP +0.01% BSA as running buffer. Antibodies were diluted to 1 μg/mL in running buffer and captured to a single flow cell on the chip surface. Each species of LEPR-ECD was diluted to 1000 nM in running buffer followed by 2-fold serial dilution. Each ligand concentration was injected over all flow cells at 100 L/min for 150 seconds followed by a 600 second dissociation phase. Regeneration was performed by injecting 10 mM glycine pH1.5 for 30 seconds at 10 μL/min. Data were analyzed in Biacore T200 Evaluation Software 3.1 by flow-cell 1 reference subtraction along with 0 nM blank subtraction. Data were fit globally using a “1:1 Binding” binding model to determine the on-rate (kₐ) and off-rate (kd) for each ligand. The affinity (KD) was calculated from the binding kinetics according to the relationship KD=kₐ/kd. Data reported as mean±standard deviation of experimental replicates.

[6] = molecular target: T5, cynomolgus monkey LEPR, full length, on HEK293-STAT3Luc-cmLepR2 cells (Macaca fascicularis); experiment: flow cytometry on live HEK293-STAT3Luc-cmLepR2 cells, AF647 anti-human IgG; average of 4 runs, SD 1.0
T5 construct: whole, on cells; also called cyno-LEPR; Macaca fascicularis LEPR
Procedure: as §2

CYNO LEPR-ECD-His [7] = molecular target: T4, CYNO LEPR-ECD-His; experiment: SPR (Biacore T200), antibody captured on Protein A/G chip, His-tagged LEPR-ECD as analyte, 1:1 fit; mean n=4, SD 1.7E-8
Procedure: as §3

binding result [1]: no binding (tested: 10 ug/ml) | Peak Width [2]: 2.7 min | EC50 [3]: 2.45 nM | Retention Time [4]: 80.1 min | Kd (CYNO LEPR-ECD-His [5]): 19 nM
B1: Antibody A (antibody, human IgG1, kappa, L234A L235A)
heavy: EVQLLESGGGLVQPGGSLRLSCAASGFTFSSFAMSWVRQAPGKGLEWVSAISGSGGSTYSADSVRGRFTISRDNSKNTLYLQMNSLRAEDTAVYYCAKDQGDWDFLFDYWGQGTLVTVSSASTKGPSVFPLAPSSKSTSGGTAALGCLVKDYFPEPVTVSWNSGALTSGVHTFPAVLQSSGLYSLSSVVTVPSSSLGTQTYICNVNHKPSNTKVDKRVEPKSCDKTHTCPPCPAPEAAGGPSVFLFPPKPKDTLYITREPEVTCVVVSVSHEDPEVKFNWYVDGVEVHNAKTKPREEQYNSTYRVVSVLTVLHQDWLNGKEYKCKVSNKALPAPIEKTISKAKGQPREPQVYTLPPSREEMTKNQVSLTCLVKGFYPSDIAVEWESNGQPENNYKTTPPVLDSDGSFFLYSKLTVDKSRWQQGNVFSCSVMHEALHNHYTQKSLSLSPGK
light: DIQMTQSPSFLSASVGDRVTITCRASQGISSSLAWYQQKPGKAPKLLIYTASTLQSGVPSRFSGSGSGTEFTLTISSLQPEDFATYYCQQLIYYPFTFGQGTKVEIKRTVAAPSVFIFPPSDEQLKSGTASVVCLLNNFYPREAKVQWKVDNALQSGNSQESVTEQDSKDSTYSLSSTLTLSKADYEKHKVYACEVTHQGLSSPVTKSFNRGEC
notes: IgG1 mAb

EC50 [6]: 1.11 nM | Kd (CYNO LEPR-ECD-His [7]): 32 nM
B2: Antibody B (antibody, human IgG1, kappa, L234A L235A, V domains shown)
VH: EVQLLESGGGLVQPGGSLRLSCAASGFTFSSFAMSWVRQAPGKGLEWVSAISGSGGSTYSADSVRGRFTISRDNSKNTLYLQMNSLRAEDTAVYYCAKDQGDWDFLFDYWGQGTLVTVSS
VL: DIQMTQSPSFLSASVGDRVTITCRVSQGISSSLAWYQQKPGKAPKLLIYTASTLQSGVPSRFSGSGSGTEFTLTISSLQPEDFATYYCQQLNYYPFTFGQGTKVEIKR
